Laboratory results as given in patent US20240390496A1 (published 2024).

Molecular target: T1, MAGE-A3 peptide on HLA-A*02:01 (human)
T1 peptide: KVAELVHFL
Assay: killing

B1: MAGE-A3 (112-120) TCR (MAGE-A3-112-120-Va / MAGE-A3-112-120-Vb) (TCR, V domains shown)
Valpha: GDSVTQTEGLVTLTEGLPVMLNCTYQTIYSNPFLFWYVQHLNESPRLLLKSFTDNKRTEHQGFHATLHKSSSSFHLQKSSAQLSDSALYYCAFDTNTYKVIFGKGTHLHVLP
Vbeta: DMKVTQMPRYLIKRMGENVLLECGQDMSHETMYWYRQDPGLGLQLIYISYDVDSNSEGDIPKGYRVSRKKREHFSLILDSAKTNQTSVYFCASSSTNTEVFFGKGTRLTVL
- binding result: recognises
